Target: T1, Rat PTH (1-84) (rat)
T1 sequence (peptide): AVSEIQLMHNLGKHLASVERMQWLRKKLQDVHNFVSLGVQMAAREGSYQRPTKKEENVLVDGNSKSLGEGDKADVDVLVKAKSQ
Experiment: ELISA on coated peptide; B cell supernatant

OD: 0.19 OD450
B1: anti-PTH mAb 168 (antibody, human IgG2, V domains shown)
VH: EVQLVQSGAEVKKPGESLKISCKGSRYIFTNYWIGWVRQMPGKGLEWMGIIYPGDSDTRYSPSFQGQVTISADMSISTAYLQWSSLKASDTAMYYCARQGDYVWGSFDSWGQGTLVTVSS
VL: DIVMTQTPLSLSVTPGQPASISCKSSQSLLDSDGKTYLYWYLQKPGQPPQLLIYEVSNRFSGVPDRFSGSGSGTDFTLKISRVEAEDVGVYYCMQSIQLWTFGQGTKVEIK

Reference: patent US20060062783A1
